Molecular target: T1, Full-length recombinant FVIII (Kogenate FS) (Homo sapiens, UniProt P00451)
T1 construct: coagulation factor VIII, human, full-length recombinant (Kogenate FS); also called coagulation factor VIII; source: provided by Bayer Healthcare (Kogenate FS), reconstituted and dialyzed into Borate Buffer
Assay: ELISA; FVIII (6.6 nM in PBS) coated; Bo2C11 serially diluted 1:3 from 60 nM; detected by anti-human IgG
Details: both partners purified

T1 sequence (P00451 20-2351): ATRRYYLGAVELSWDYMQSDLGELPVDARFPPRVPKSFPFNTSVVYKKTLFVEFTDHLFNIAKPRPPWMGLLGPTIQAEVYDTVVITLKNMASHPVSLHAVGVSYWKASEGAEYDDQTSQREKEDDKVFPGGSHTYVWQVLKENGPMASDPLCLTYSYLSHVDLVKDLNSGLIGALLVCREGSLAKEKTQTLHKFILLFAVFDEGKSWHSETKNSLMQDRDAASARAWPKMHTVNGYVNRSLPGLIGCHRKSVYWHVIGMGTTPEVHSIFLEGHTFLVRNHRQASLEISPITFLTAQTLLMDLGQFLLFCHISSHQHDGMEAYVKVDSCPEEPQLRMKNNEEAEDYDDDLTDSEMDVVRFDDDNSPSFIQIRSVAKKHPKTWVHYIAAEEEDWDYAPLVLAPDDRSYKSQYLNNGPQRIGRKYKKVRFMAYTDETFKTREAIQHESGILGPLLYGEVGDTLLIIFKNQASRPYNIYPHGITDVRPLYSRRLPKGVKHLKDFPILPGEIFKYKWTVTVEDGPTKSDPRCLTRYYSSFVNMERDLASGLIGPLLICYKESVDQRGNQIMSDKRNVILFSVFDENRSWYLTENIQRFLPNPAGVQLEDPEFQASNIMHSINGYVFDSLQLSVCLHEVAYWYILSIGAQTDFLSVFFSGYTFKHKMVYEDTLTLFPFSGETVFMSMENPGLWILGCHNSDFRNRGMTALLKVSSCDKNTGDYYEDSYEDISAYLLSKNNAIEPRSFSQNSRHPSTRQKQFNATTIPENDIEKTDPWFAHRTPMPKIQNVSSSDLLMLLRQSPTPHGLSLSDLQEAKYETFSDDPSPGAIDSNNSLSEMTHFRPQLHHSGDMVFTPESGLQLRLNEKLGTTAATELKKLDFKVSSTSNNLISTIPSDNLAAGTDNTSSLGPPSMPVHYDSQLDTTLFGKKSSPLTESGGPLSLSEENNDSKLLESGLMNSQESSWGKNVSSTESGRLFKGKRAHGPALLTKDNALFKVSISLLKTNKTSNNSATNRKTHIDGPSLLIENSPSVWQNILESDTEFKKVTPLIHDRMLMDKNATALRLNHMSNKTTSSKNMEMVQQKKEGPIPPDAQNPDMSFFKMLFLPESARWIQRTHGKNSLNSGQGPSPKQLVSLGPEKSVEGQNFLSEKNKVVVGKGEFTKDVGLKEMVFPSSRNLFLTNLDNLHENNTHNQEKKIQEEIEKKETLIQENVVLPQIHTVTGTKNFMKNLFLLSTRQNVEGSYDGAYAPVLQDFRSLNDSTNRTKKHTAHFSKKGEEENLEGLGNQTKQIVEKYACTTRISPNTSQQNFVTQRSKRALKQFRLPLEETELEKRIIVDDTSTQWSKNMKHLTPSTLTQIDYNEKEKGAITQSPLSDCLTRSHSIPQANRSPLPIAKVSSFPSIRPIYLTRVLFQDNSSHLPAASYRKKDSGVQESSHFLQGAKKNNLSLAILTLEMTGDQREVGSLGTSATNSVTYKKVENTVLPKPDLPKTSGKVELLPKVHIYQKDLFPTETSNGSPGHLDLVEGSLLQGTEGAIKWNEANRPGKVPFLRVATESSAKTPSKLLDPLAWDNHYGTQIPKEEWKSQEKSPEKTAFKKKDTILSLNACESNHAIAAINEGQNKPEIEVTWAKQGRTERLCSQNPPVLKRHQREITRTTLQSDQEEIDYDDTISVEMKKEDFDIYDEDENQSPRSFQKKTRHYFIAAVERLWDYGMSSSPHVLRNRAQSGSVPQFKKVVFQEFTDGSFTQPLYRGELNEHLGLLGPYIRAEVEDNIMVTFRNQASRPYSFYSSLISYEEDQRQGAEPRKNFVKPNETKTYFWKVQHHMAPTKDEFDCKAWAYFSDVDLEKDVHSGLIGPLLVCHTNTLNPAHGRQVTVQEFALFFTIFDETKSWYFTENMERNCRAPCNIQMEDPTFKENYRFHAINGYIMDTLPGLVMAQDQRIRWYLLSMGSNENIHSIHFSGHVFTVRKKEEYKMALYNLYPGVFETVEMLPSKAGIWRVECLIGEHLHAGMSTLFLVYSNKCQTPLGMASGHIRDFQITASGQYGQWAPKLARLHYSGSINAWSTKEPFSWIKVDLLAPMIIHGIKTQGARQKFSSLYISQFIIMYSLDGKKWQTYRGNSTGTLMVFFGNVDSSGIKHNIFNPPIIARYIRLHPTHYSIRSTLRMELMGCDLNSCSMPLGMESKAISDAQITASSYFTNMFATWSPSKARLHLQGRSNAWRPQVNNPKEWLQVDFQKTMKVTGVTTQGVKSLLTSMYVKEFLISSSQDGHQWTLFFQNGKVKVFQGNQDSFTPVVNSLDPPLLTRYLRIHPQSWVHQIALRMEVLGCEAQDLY

B1: human monoclonal anti-FVIII antibody Bo2C11 (antibody, V domains shown)
VH: QVQLVQSGAEVKKPGASVKVSCKVSGYTLTELPVHWVGQAPGKGLEWVGSFDPESGESIYAREFQGSVTMTADTSTDIAYMELSSLRSDDTAVYYCAVPDPDAFDIWGQGTMVTVSS
VL: EIALTQSPGTLSLSPGERATLSCRASQSFSSSYLAWYQQKPGQAPRLLIYGASTRATGIPDRFSGSGSGTDFTLTISRLEPEDFAVYYCQKYGTSAITFGQGTRLEIK
- EC50: 2.66 nM

From article PMC3634029 (PLoS ONE, 2013)
